Experimental data from a protein production outcome set (Wang et al. 2014).

Test: label from the status in PepcDB records

Sequence	protein production
MINLVEFNLFLDLLGSALLLSLPWLLLGIIISSTFLIWTDEQKWVANFPRNRLLSSLVGSALGFLLPLGAFGSVPLVRRLLLQGAPIPLAVSFLVAAPTLNIFAIVRVLSSRQSQYGLIFLCISCSWLMAIVMGLVFSTYRLARQQAEDEGETALLNIPLLRSGALIILQSSMEASPRQGGLVFASGVNPVADFSWRQKLHLFGRNIIEEFQEFGGVLVIGTAIACGIVFFLPQAWLLQWAGLGPVRQTVLMMGWSFILPLGNFSNPDLLAPLGEQLWRGSMVAFLLWGSLFNLQTIGLWLVTLRLRPLSYLVVLVGLSVFLFAMVTNYYLS	failed
MINMKPQYYLGMMSGTSLDGVDIVLVDFSQDPQLILSDFFPMPEDLREKLTTLIQVGETTLQNLGELDHKLALLYSDCVNAFLQKNTFLPNQIQAIGCHGQTVWHSPNSQFPFTMQLGDMNLLAAKTGISVIGDFRRKDMAWGGQGAPLVPAFHEAVFSNSNFATAVLNIGGISNVSILFPNQAVIGFDTGPGNTLLDQWIEKHQGLRYDENGEWAAKGNVNKVLLDELLNEPFFSLPAPKSTGRELFNLVWLNHKIAKIREKLTALSVEMSFRPEDVQATLVELTVTSIVNALNQLQTDLPKRLLVCGGGAKNSLIMRGLHDNLLDWQVSTTTEQGFDIDYVEAAAFAWLAYCRINNLPANLPSVTGAKSAVSLGAIFPKD	failed
MINQNATYMEESAQSAVDNFGLGFNLGNTLDANGCGTGKPVATYETFWGQPETTQDMMTFLMQNGFNAVRIPVTWYEHMDAEGNVDEAWMMRVKAIVEYAMNAGLYAIVNVHHDTAAGSGAWIKADTDVYAATKEKFKKLWTQIANALADYDQHLLFEGYNEMLDGNNSWDEPQKASGYEALNNYAQDFVDAVRATGGNNATRNLIVNTYAAAKGENVLNNFMLPTDAVNNHLIVQVHSYDPWNFFNTKTTWDSECHNTLTEIFSALSKKFTTIPYIIGEYGTHGESDISVSKSSPAEKIKLAADQAADMVKLAKDHHSATFYWMSIFDGSDRIQPQWSLPTVVEAMQEAYNN	not failed
MIPDLVPVSLTPVTVVPNTVNTMTATIENQGNKDSTSFNVSLLVDGIVVDTQTVTSLESENSTNVDFHWTLDGTANSYTLTVNVDPENAVNEGNESNNTLTALVGTLEHHHHHH	not failed
MIPEHLSIYTAYNANIDAIVKLNQETIQNLINAFDPDEVKRRIEEYPREINEPIDFVARLVHTLKLGKPAAVPLVNEKMNEWFDKTFRYEEERLGGQAGIIANTLAGLKIRKVIAYTPFLPKRLAELFKKGVLYPVVENGELQFKPIQEAYREGDPLKINRIFEFRKGLKFKLGDETIEIPNSGRFIVSARFESISRIETREDIKPFLGEIGKEVDGAIFSGYQGLRTKYSDGKDANYYLRRAKEDIIEFKEKDVKIHVEFASVQDRKLRKKIITNILPFVDSVGIDEAEIAQILSVLGYRELADRIFTYNRLEDSILGGMIILDELNFEILQVHTTYYLMYITHRDNPLSEEELAKSLEFGTTLAAARASLGDIRGPDDYKVGLKVPFNERSEYVKLRFEEAKSRLRMREYKVVVIPTRLVQNPVLTVGLGDTISAGAFLTYLEFLKRH	not failed
MIPLHRLCRALALLMGFGPTLSALAASAPEGLPLLGTGEGLEVRGCETLVLRGGQVVRLAEIIGPEAEGAARAQAALGALVVGHSLRLYGESPLADRYGRLHAHGVTEEGRWVQGALVEAGLARVVIREGESALSGALLALEERARRAGRGLWPPASAASPPPGALAATGDGFQVVEGRIVSAARAGRRIYLNFGADWRSDFTVSLSEAMLARLLATGRDPLAWAGRRVRVRGWVTRRNGPLLDLPHPMALEGPLDGPPFLSPKENLDLEYPGN	failed
MIQALLQRYEKKIERRKLEKRTAFGAFAGRIGLVSNLFLFVSKFMIGLLSGSVSIMADAINSLSDTISSVLTLVGFYIAGKPADKEHPYGHERFEYISGMLVSLVITFIGFEFLTTSVDRILHPESIKVTPILFAVLALSIGIKIWQGLFYKKVSAKIDSQALVASAKDSFNDVYTTLAVLISAFIEGVTGLRIDGYIGFLIAAYIIYSGLQLIREFINELMGMRPSQTEIDEMKNVLSKMETIVGYHDLLIHNYGPSQTFASVHIEIDDRWDLNKAHQTIDAIEAKFKEELDVNLVCHIDPVNLYDPTQQFVHQTIKKIIRSFDASLKVHDIRLVTHGEEPKILFDLVLPTESKLSEFELGVEIQRQVYEKIGRYKVEITFDHTYLLQ	failed
MIQCILVMLGGGIGAVIRGFVTDVFNQKFNTSLPIPTLLINVVGSFCIGLLMGMCLNINWINPFIIVGILGGLTTFSTLSSELVKLLTTPKQINLFILYSILQYGVSFVACLLGYYLF	failed
MIQLKNVGITLSGKGYERFSLENINLEVNGEKVIILGPNGSGKTTLLRAISGLLPYSGNIFINGMEVRKIRNYIRYSTNLPEAYEIGVTVNDIVYLYEELKGLDRDLFLEMLKALKLGEEILRRKLYKLSAGQSVLVRTSLALASQPEIVGLDEPFENVDAARRHVISRYIKEYGKEGILVTHELDMLNLYKEYKAYFLVGNRLQGPISVSELLESSIVEGERNDALLVLDIMDKKVSIVKGDLGMKFGALGSLNRIYGIIGA	not failed
MIQQLLVTFPPMLFGAQALLTLLLIKGDICPGQRGRLHKMLPAIGVLWLAVASLRIEAFMVVFAIFYFYSQVQTKKTREKGPLWALHLANGLAFAYVSIQVFEQPNWPASAAMAVMIFFLGASFSQLLLTIARSRLQAFHRILPVTGIVSGMLLVLATLFSSYQLDEATLASATQPILISLALLISTIVVWCWHIFTHKAPEKVQLSIALLLALASMTSLQGLFALAV	failed
MIRAVFFDFVGTLLSVEGEAKTHLKIMEEVLGDYPLNPKTLLDEYEKLTREAFSNYAGKPYRPIRDIEEEVMRKLAEKYGFKYPENFWEIHLRMHQRYGELYPEVVEVLKSLKGKYHVGMITDSDTEYLMAHLDALGIKDLFDSITTSEEAGFFKPHPRIFELALKKAGVKGEEAVYVGDNPVKDCGGSKNLGMTSILLDRKGEKREFWDKCDFIVSDLREVIKIVDELNGQ	not failed
MIRFQPITTSDVQHYKFMEELLVESFPPEEYRELEHLREYTDRIGNFHNNIIFDDDLPIGFITYWDFDEFYYVEHFATNPALRNGGYGKRTLEHLCEFLKRPIVLEVERPVEEMAKRRINFYQRHGFTLWEKDYYQPPYKEGDDFLPMYLMVHG	failed
MIRIDSVTKRYPDGTVAVDRLSLEIPDRSITVLVGPSGCGKTTTLRMINRMVEPSEGTILLDGADITKQPVNTLRRSMGYVIQNAGLFQHRTIVDNIATVPRMLGWGKERARSRARELMERVGLDASLARRYPYQLSGGQQQRVGVARALASDPPVLLMDEPFSAVDPVVRKGLQEELLRIQDELGKTIVFVTHDIDEAIRLGTMVAVMRTGGHLAQFAPPAELLSAPADAFVEDFLGTDRGIRRLSFFPSAGLELLTTPVVAIDSTAEQIAARGTPDVPYLLVTDVDGKALGWSEPKDLTAGKVVPERLLPYGRPFESGKDSLRAALDCAVLSPTGWAVAVDGTGRVVGVVSQETIGEAIRGAHAERRKADLAGLEHHHHHH	not failed
MIRISIALLDHQEQLPNMFENLSEDLRKALNEAGYIKPTRVQEVVIPELMNGKSVIVQAKTGSGKTAAYVIPILERNSTALILSPTRELATQILDEIKKLGKYKQIDVSLIIGGMSYDDQRQSKIVVGTPGRLLDLWSKGKIDFSGYDFVIVDEADRMLDMGFIDDIRMILNHCNAKIAGFFSATIPDEIMTLAKEFSKDLREIVLDEYKPVEEVKQKFVKVRNDWNDKVSKLLEEINGEKILVFARTRDRARKLYYLLKGKGVNVGLLSGDMPQSVRLKNFYGFKKGKYNVLVATDLASRGIDIIDVNKVINFDIPRDVETYIHRVGRTGRMGRVGQAITFYTFREADMIKRINNLLAI	failed
MIRKWDTKDTAPLLALWLDSTIHAHPFISESYWRDSVAVVRDVYLPAASTWVWEQDGELKGFVSVLDSRFVGALFVAPGATRQGIGRALLDEVKQHYAWLSLEVYQKNESAVSFYHAQGFRIEDCAWQDDTQHPTWIMRWPA	not failed
MIRMTVKVPHPLRVVAVSGGMQRPSKSVALAEHLLALIAEQLPCERHLVEIGALAPQFAGAPWRSHLPGSVEQALALVEQADVLVVATPVYRGSFTGLFKHFFDFIDQDALVDTPVLLAATGGSDRHALMIDHQLRPLFSFFQARTLPLGVYATDRDFLDYRVHSQALAERASLAVQRALPLIELTRHARSITAQNVAAA	failed
MIRPEYLRVLRKIYDRLKNEKVNWVVTGSLSFALQGVPVEVHDIDIQTDEEGAYEIERIFSEFVSKKVRFSSTEKICSHFGELIIDGIKVEIMGDIRKRLEDGTWEDPVDLNKYKRFVETHGMKIPVLSLEYEYQAYLKLGRVEKAETLRKWLNERKG	not failed
MIRPTVQENFSRYADCIAACNAAAAACLKCAAACLEEPDTRKMTRCIALDMDCAGIANLAASYMLRNSEFAPLVCEDCAEVCKWCKEECERYDHWHCQECAKACAACMEMCLKMTA	failed
MIRVLFAFIILLLSVFLGIQLNKDPGYVLIAINNWTIETTLWVSVFGLFFLFFLIYGLVQFCNKITRMPGMVNKWHSRRLAQKAQATTRKGLIEYSEGYWQKAKNHLIQALPNTDTPLLNYLTAARAAQKMGDSKLRDHYLREAQQSMPEAKIAVELTQAQLQLANHQWEQALATLKHLQDLAPRHPYVLKLLMNLYEEIKDWQQLIALLPDLKKNHIISDQAFEQLQKNTYLQAMIDLAKHNQSDGITKLYQTLPKTLVNDTAITAEYARFLIRNQDYDQAEYHLKRCLRKELDNRLIELYSLLPCEENQLLFAESLLKKNPHSAALYLCLGRMCLSRHLWGKAKHYLEQSIELNPTPVAFIELGKLHEKLNDPLSSGSCYKKGLELITKDELS	failed
MISAHCNLRLLCSSDSSASASQVAGTTEVVENLVTNDNSPNIPEAIDRLFSDIANINRESMAEIADIQIEEMAVNLWNWALTIGGGWLVNEEQKIRLHYVACKLLSMCEASFASEQSIQRLIMMNMRIGKEWLDAGNFLIADECFQAAVASLEQLYVKLIQRSSPEADLTMEKITVESDHFRVLSYQAESAVAQGDFQRASMCVLQCKDMLMRLPQMTSSLHHLCYNFGVETQKNNKYEESSFWLSQSYDIGKMDKKSTGPEMLAKVLRLLATNYLDWDDTKYYDKALNAVNLANKEHLSSPGLFLKMKILLKGETSNEELLEAVMEILHLDMPLDFCLNIAKLLMDHERESVGFHFLTIIHERFKSSENIGKVLILHTDMLLQRKEELLAKEKIEEIFLAHQTGRQLTAESMNWLHNILWRQAASSFEVQNYTDALQWYYYSLRFYSTDEMDLDFTKLQRNMACCYLNLQQLDKAKEAVAEAERHDPRNVFTQFYIFKIAVIEGNSERALQAIITLENILTDEESEDNDLVAERGSPTMLLSLAAQFALENGQQIVAEKALEYLAQHSEDQEQVLTAVKCLLRFLLPKIAEMPESEDKKKEMDRLLTCLNRAFVKLSQPFGEEALSLESRANEAQWFRKTAWNLAVQCDKDPVMMREFFILSYKMSQFCPSDQVILIARKTCLLMAVAVDLEQGRKASTAFEQTMFLSRALEEIQTCNDIHNFLKQTGTFSNDSCEKLLLLYEFEVRAKLNDPLLESFLESVWELPHLETKTFETIAIIAMEKPAHYPLIALKALKKALLLYKKEEPIDISQYSKCMHNLVNLSVPDGASNVELCPLEEVWGYFEDALSHISRTKDYPEMEILWLMVKSWNTGVLMFSRSKYASAEKWCGLALRFLNHLTSFKESYETQMNMLYSQLVEALSNNKGPVFHEHGYWSKSD	failed
